Here are results for 16 sequences from the supplement of paper PMC9170038.

The data set has as its system MS2 coat protein. As to the kind of experiment: apparent KD of MS2 coat protein; higher = weaker reporter binding. The note with it: Eterna round: R107. In short, it runs like this:
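Designed RNA switches were made by on-chip transcription from Illumina sequencing clusters and then titrated with SNAP-549-labelled MS2 coat protein. Twofold steps ran from 0.7 or 1.5 nM to 3 µM, each lasting 0.8–1.5 h early and 10–20 min late, in 100 mM Tris-HCl pH 7.5, 80 mM KCl, 4 mM MgCl2, without or with constant ligand. Apparent KD is the per-design median of normalised cluster binding-curve fits.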

Setting [1] is: input ligand: theophylline 20 uM.
Where [2] appears, read: input ligand: theophylline 2 mM.
Where [3] appears, read: input ligand: tryptophan 2.4 mM.

As for “AUAUAUACAUGAGGAUCACCCAUGUUAUUUCGAGGACCGGUACGGCCGCCACUCGAUAGAGUAGAAGUAAAUUUUGAUUCAUGUA [JR_SSTryptoA_Sub009]”, the “apparent KD of MS2 coat protein” value is, setting by setting: (input ligand: arginine 13.2 mM) 17.9 nM; under setting [1], 27 nM; under setting [2], 23.5 nM.
With “AUAUUUAACGGAAGGAGCGCGGAUAAUAAAGUGGGUAAACAUGAGGAUCACCCAUGUAAACCGCAGGUAGGUCGCCGAUAUAUAU [AstrosEXyARgB#7]”, the “apparent KD of MS2 coat protein” value is 26.4 nM (input ligand: arginine 13.2 mM); 63.6 nM (input ligand: none); 54.8 nM under setting [1]; 51.2 nM under setting [2]; 41.4 nM under setting [3].
Regarding “AUCCUCUAGAAUGAUACCAGACCAAACAUGAGGAUCACCCAUGUAUCAGGCAAUUGUUACGUCCCUUGGCAGCAUGUAUGCCGAC [Theo B SS t3]”, the “apparent KD of MS2 coat protein” value is 17.7 nM (input ligand: arginine 13.2 mM), 31.5 nM under setting [1] and 20.2 nM under setting [3].
“AUCGCACCUGGUGAUACCAGCAAUUGCUCGUGACAUGAGGAUCACCCAUGUGGCCAGUGAUGCCCUUGGCAGCAUGGUCGGUGCA [Same State - Theophylline B (Freestyle 25)]”: the “apparent KD of MS2 coat protein” value is, setting by setting: (input ligand: arginine 13.2 mM) 98.2 nM; (input ligand: none) 317 nM; under setting [1], 335 nM; under setting [2], 64.5 nM; under setting [3], 288 nM.
Consider “AUCGCACCUGGUGAUACCAGCGUUUGCUCGCGACAUGAGGAUCACCCAUGUGGCCAGUGAUGCCCUUGGCAGCAUGGUCGGUGCA [Same State - Theophylline B (Freestyle 27)]”, for which the “apparent KD of MS2 coat protein” value reads like this: (input ligand: arginine 13.2 mM) 75.5 nM; under setting [1], 309 nM; under setting [3], 314 nM.
For “AUCUUUGACGAUCUGGGAAAACCAGAUCGGCGAGGACCGGUACGGCCGCCACUCGUGUAUAAUAUACAUGAGGAUCACCCAUGUA [#19 Tryptophan A Same State]”, the “apparent KD of MS2 coat protein” value runs as follows: (input ligand: arginine 13.2 mM) 27.3 nM; under setting [1], 61.3 nM; under setting [2], 53.9 nM.
Turning to “AUGCACGGGCUAAUCUGCGAUUGGCACGAUACCAGAGAUCAAGACCUCCCUUGGCAGCGUGUCACAUGAGGAUCACCCAUGUGGA [theeternabot_exclusion_MS2_Theo_A_40]”, the “apparent KD of MS2 coat protein” value is, setting by setting: (input ligand: arginine 13.2 mM) 43.4 nM; under setting [1], 127 nM; under setting [3], 141 nM.
For “AUGCAUAGCGGAAGGAGCGCAAUAGAAUGACAUGAGGAUCACCCAUGUAUGUGAUGUGGGUUGCAGGUAGGUCGCCGAGUGGUAU [Exclusion - Arginine B (Freestyle 1)]”, the “apparent KD of MS2 coat protein” value reads like this: (input ligand: arginine 13.2 mM) 70.7 nM; (input ligand: none) 60.5 nM; under setting [1], 98.8 nM; under setting [2], 62.6 nM; under setting [3], 55 nM.
Turning to “AUGCCUAGUGGAAGGAGCGAGGGUCCUCUCAACAUGAGGAUCACCCAUGUUCUUUUGCACCCUCAGGUAGGUCGCCAUUGGGACA [Veanaris]”, the “apparent KD of MS2 coat protein” value is, setting by setting: (input ligand: arginine 13.2 mM) 30.8 nM; (input ligand: none) 59.8 nM; under setting [1], 92.4 nM; under setting [2], 65.8 nM; under setting [3], 76 nM.
On to “AUGGCGUUGGUGAGGCGGUUUAAUGGCGAUACCAGCGUGGAAACACGCCCUUGGCAGCGCCAAAACAUGAGGAUCACCCAUGUUA [Budejovice]”, for which the “apparent KD of MS2 coat protein” value reads like this: (input ligand: arginine 13.2 mM) 13.2 nM; (input ligand: none) 13.4 nM; under setting [1], 28 nM; under setting [2], 132 nM; under setting [3], 16.4 nM.
Regarding “AUGUAGAACCGAAGGAGCGCGAUAACAUGAGGAUCACCCAUGUAGCUUUGGUGGCCUCGAUCGCAGGUAGGUCGCGGAAGUAGUA [Exclusion - Arginine B / A]”, the “apparent KD of MS2 coat protein” value was found to be 40.8 nM (input ligand: arginine 13.2 mM); 102 nM (input ligand: none); 213 nM under setting [1]; 231 nM under setting [2]; 155 nM under setting [3].
With “AUGUAGCCGUCGACUGUACCUUAUGCCGAUACCAGCUACCCGUGAAGCCCUUGGCAGCGGGAAACAUGAGGAUCACCCAUGUCAG [theeternabot_exclusion_MS2_Theo_A_13]”, the “apparent KD of MS2 coat protein” value was determined as 19.6 nM (input ligand: arginine 13.2 mM), 29.6 nM under setting [1] and 24.7 nM under setting [3].
On the same counts, the results for “AUGUCGUUGAAUACAGCGGCAUGGUGUGAUACCAGAAUGAUCAAAUUCCCUUGGCAGCAUCACAUGAGGAUCACCCAUGUUAAGG [SSTheo A #17]” are 27.5 nM, 50 nM and 46.4 nM.
For “AUGUCGUUGAAUAUAGCGGCUUGGUGUGAUACCAGAAUGAUCUAAUUCCCUUGGCAGCAUUACAUGAGGAUCACCCAUGUUUAGG [SSTheo A #19]”, the “apparent KD of MS2 coat protein” value is, setting by setting: (input ligand: arginine 13.2 mM) 24.4 nM; under setting [1], 29.6 nM; under setting [3], 28.8 nM.
Turning to “AUUAUAGUUUAUAACGAAGUUGAUACAGAAGGAGCGUGAAUAAUCACAGGUAGGUCGCUGAUAAUACAUGAGGAUCACCCAUGUU [JR_Nu_SSArginiA_Sub018]”, the “apparent KD of MS2 coat protein” value (input ligand: arginine 13.2 mM) stood at 20.7 nM; the “apparent KD of MS2 coat protein” value (input ligand: none) stood at 20.4 nM; the “apparent KD of MS2 coat protein” value under setting [1] amounted to 31.9 nM; the “apparent KD of MS2 coat protein” value under setting [2] was found to be 18.9 nM; the “apparent KD of MS2 coat protein” value under setting [3] is 19.4 nM.
As for “AUUCCAUAGGUGCAGUUGUUAAAUGGCGAUACCAGCGUGGAAACACGCCCUUGGCAGCGCCAAAACAUGAGGAUCACCCAUGUUA [Kladno]”, the “apparent KD of MS2 coat protein” value turned out to be 48.3 nM (input ligand: arginine 13.2 mM), 111 nM under setting [1] and 94.8 nM under setting [3].
